This assay concerns the target T1, MBP-53BP1-Tudor protein (residues 1484-1603) (UniProt Q12888 1484-1603).
T1 construct: range 1484-1603; also called MBP-Tudor fusion of 53BP1; not shown: MBP fusion partner
Nature of the assay: pulldown competition on MBP-53BP1-Tudor; competitor GST-UbvG08; immunoblot. On the technique in general: A western blot detects proteins with antibodies after separation by electrophoresis.

Square brackets hold non-standard residues; d marks the D form. Ends that are not written are not given here. * marks the point of attachment. Biotin = O=C1N[C@H]2[C@H](CS[C@H]2CCCCC(=O)*)N1; Lys(Me2) = CN(C)CCCC[C@H](N)C(=O)O

T1 sequence (Q12888 1484-1603): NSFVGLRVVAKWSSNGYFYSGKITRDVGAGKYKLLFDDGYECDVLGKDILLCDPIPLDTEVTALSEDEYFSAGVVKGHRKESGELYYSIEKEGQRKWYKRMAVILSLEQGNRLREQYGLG

B1: biotin-labeled peptide derived from histone H4K20me2 (peptide)
peptide: {Biotin-Mini‑PEG}-YGKGGAKRHR[Lys(Me2)]VLRD
notes: Synthetic peptide (BioBasic Canada Inc.); also called H4K20me2 peptide
As a reminder, the IC50 is the point on the concentration scale where inhibition reaches its midpoint. A lower IC50 goes with higher potency. In turn, B1 registered an IC50 of 100 to 300 µM.
